In this test the target is Prostate specific antigen (PSA), purified from human seminal fluid (human) (UniProt P07288). Put plainly: gel filtration peak of ~30 kD after thrombin cleavage, GST-peptide IFMA on PSA captured by MAb 5E4.

As to “~30 kD component of thrombin-cleaved GST-C-4 (from UniProt P08515 1-218)”, the Binding activity (% of total), remaining after thrombin-treatment came to 5.2%.
